In the supplement of paper PMC10567573:
± gives the standard deviation.

Test: protein stability index of a GFP-peptide fusion (GPS, HEK-293T) (PSI 1-6); higher = more stable
[1] = treatment: DMSO, c terminus: a fixed tail appended
[2] = treatment: MLN4924 1 uM, 8 h, c terminus: a fixed tail appended
[3] = treatment: DMSO, c terminus: native
[4] = treatment: MLN4924 1 uM, 8 h, c terminus: native
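Note: 24-mer peptide tiles fused after GFP, lentivirally expressed, FACS-sorted into six equal bins by GFP/DsRed ratio, decoded by Illumina sequencing, PSI is the read-weighted mean bin number.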

Sequence | protein stability index [1] | protein stability index [2] | protein stability index [3] | protein stability index [4]
QLWSNVTPLTFTKVSEGQADIMIS [MMP1] | 2.58 ± 0.24 | 2.66 ± 0.43 |  | 
SLSFEDELVYADDYIMDEDQSKLA [ESRRG] | 5.43 ± 0.31 | 5.41 ± 0.27 |  | 
SYLIEKVKRKKNVLRLCCKKLKIF [PRAME] | 3.23 ± 0.36 | 3.22 ± 0.28 |  | 
DDEDEEEEDADCYDDDDSGNEES [UBE2R2] |  |  | 5.57 ± 0.33 | 5.57 ± 0.084
FLDERLYCESHAKARVKPPEGYDV [PDLIM4] | 2.78 ± 0.8 | 3.23 ± 0.93 |  | 
VIVKEGGLKLIQIQDNGTGIRKED [MLH1] | 3.44 ± 0.33 | 3.48 ± 0.41 |  | 
KRALAEGAQIWCGEGVDKLSLPAR [ALDH8A1] | 3.58 ± 0.3 | 3.71 ± 0.17 |  | 
LSEEEEDEEEEEEEEEEGRFYYSE [KCNA4] | 5.2 ± 0.16 | 5.19 ± 0.39 |  | 
PSAGFRCCAAPGPHVALAVRYNRV [ANKRD9] | 2.37 ± 0.28 | 2.21 ± 0.34 |  | 
DAFWWAVVSMTTVGYGDMYPVTIG [KCNA1] | 3.45 ± 0.23 | 3.33 ± 0.49 |  | 
HGGSLLGKKYNWSCDDLMGGGGLH [GFOD1] | 2.73 ± 0.28 | 2.95 ± 0.27 |  | 
PLLPAPPKTPMDGADCGIQWWNAV [LYSMD4] | 3.48 ± 0.42 | 3.62 ± 0.21 |  | 
SLLDELLEVDHIRTIYHMFIALLI [SOAT1] | 2.01 ± 0.27 | 2.11 ± 0.56 |  | 
SVSSCDQEHQSALEEAKQPKNDNV [SMOC2] | 5.38 ± 0.21 | 5.64 ± 0.082 |  | 
DALMKEQLVEMTGLSPRVIRVWFQ [ISL2] | 2.27 ± 0.27 | 2.22 ± 0.12 |  | 
IVETVCIVWFSFEFVVRCFACPSQ [KCNA4] | 3.04 ± 0.21 | 2.66 ± 0.18 |  | 
DLYNWEVAIFGPPNTYYEGGYFKA [CDC34] | 2.65 ± 0.5 | 2.51 ± 0.95 |  | 
LLAGGEKATMQNLNDRLASYLDKV [KRT17] | 2.84 ± 0.17 | 3.08 ± 0.31 |  | 
KVTDHATTALLHYQLPQMPDVVVR [MED27] | 3.07 ± 0.19 | 3.28 ± 0.24 |  | 
YYAKRNALRAAEVWMDDFKSHVYM [GALNT9] | 2.24 ± 0.44 | 2.12 ± 0.26 |  | 
INRVSTCYSEEITVCGDLHGQLDD [PPEF2] | 4.24 ± 0.33 | 3.96 ± 0.27 |  | 
GAVAPPVSGDLTKEDIDLIDILWR [NFE2L1] | 3.16 ± 0.17 | 3.67 ± 0.53 |  | 
SSSRNSHLVQHQHPNSRKSSAGGA [ZNF8] | 4.71 ± 0.43 | 4.83 ± 0.23 |  | 

Sequence | protein stability index [1] | protein stability index [2] | protein stability index [3] | protein stability index [4]
EIFRRHFRQLCYQETPGPREALTR [ZSCAN9] | 2.51 ± 0.17 | 2.76 ± 0.24 |  | 
LEADELCDDGGDGRGAVVPGAGLR [ZBTB22] | 5.18 ± 0.27 | 5.26 ± 0.17 |  | 
AGPAGTGTPSLLRGKRGGHATNYR [EMID1] | 4.72 ± 0.49 | 4.59 ± 0.22 |  | 
IAANLENKATNTDHLTTVLYLQLA [C8orf76] | 2.36 ± 0.28 | 2.17 ± 0.25 |  | 
TDILDLENQRENLEQPFLSVFKKG [PLEKHN1] | 4.52 ± 0.07 | 4.24 ± 0.21 |  | 
AEKDRRLKKKHQLLEDARRKGMPF [PPFIA4] | 4.05 ± 0.29 | 4.29 ± 0.16 |  | 
FDSPSLCSSSTRSVLKRPERSQEE [CDC25A] | 5.04 ± 0.31 | 5.12 ± 0.16 |  | 
FKKTAYELLDEKLLARGTMQPFNY [FEM1A] | 2.37 ± 0.46 | 2.61 ± 0.17 |  | 
PSRVHGSLEPFRPQQAPQDDGSQD [PWWP2B] | 5.52 ± 0.21 | 5.52 ± 0.22 |  | 
DPSKRALSRDTVQESYENVDSLES [ZNF263] | 5.51 ± 0.065 | 5.56 ± 0.18 |  | 
NRKVSQRRVDFCKDPSAIGKKQVP [CASP6] | 4.04 ± 0.16 | 4.26 ± 0.22 |  | 
VAGGVAVAAIALILGVAFLVRKK [CEND1] |  |  | 4.02 ± 0.29 | 4.16 ± 0.097
DSRRVTKENSHQVKEELSQKFDTL [TRIM63] | 5.08 ± 0.066 | 5.02 ± 0.28 |  | 
AGIALYSHEDVCVFKCSVSRETEC [CARM1] | 3 ± 0.3 | 2.7 ± 0.4 |  | 
DQPMGGWEMIRKIGDTSVSYKYTS [LMNB1] | 3.1 ± 0.31 | 3.2 ± 0.28 |  | 
VILFSSAVYFAEAEEAESHFSSIP [KCNA1] | 2.37 ± 0.5 | 2.35 ± 0.29 |  | 
EYQLNDSAAYYLNDLDRIAQPNYI [GNAI1] | 2.61 ± 0.15 | 2.79 ± 0.49 |  | 
GKSPVNMVTVAMVAGQCEFAHILH [ZNF649] | 2.63 ± 0.63 | 2.34 ± 0.62 |  | 
TWEQTFQELIQEAKPRATWTLKLD [RTP4] | 2.02 ± 0.24 | 2.25 ± 0.33 |  | 
HHWDHARGNPELARLRPGLAVLGA [HAGHL] | 3.1 ± 0.34 | 3.08 ± 0.45 |  | 
IRYQSFNNQSDLEKEMQKMNPYKI [PRIM1] | 3.07 ± 0.13 | 3.26 ± 0.28 |  | 
AHVNTLHSGTKRDPKEDVFQQNHL [PHTF1] | 4.31 ± 0.15 | 4.28 ± 0.18 |  | 
FGGVDGLLAGGEKATMQNLNDRLA [KRT17] | 3.5 ± 0.32 | 3.69 ± 0.26 |  | 

Sequence | protein stability index [1] | protein stability index [2] | protein stability index [3] | protein stability index [4]
RPWRAGVLAEGDNASRSLYPDAED [PSD2] | 5.16 ± 0.2 | 5.05 ± 0.16 |  | 
SQLRLVCKRMDLVCQRMLNQGFLK [FBXO28] | 2.38 ± 0.42 | 2.46 ± 0.2 |  | 
KSNGFFHGISIPEPEDMETLEEKF [CDKL4] | 4.5 ± 0.14 | 4.56 ± 0.27 |  | 
NLARQWNNCAFLESSAKSKINVNE [RAP1B] | 2.93 ± 0.33 | 2.75 ± 0.19 |  | 
RILQEKLDQPVSAPPSPRDISMEI [CCDC6] | 3.68 ± 0.33 | 3.87 ± 0.25 |  | 
ESENASLREKLRLREAEIARIRDE [LRRC45] | 5.26 ± 0.17 | 5.11 ± 0.11 |  | 
DRHGVYGLQRNLLVENIIDIYKQE [TRIM63] | 3.2 ± 0.32 | 3.39 ± 0.24 |  | 
RAASENSQDALRVVSTSGEQMKVY [IKZF1] | 4.26 ± 0.57 | 4.78 ± 0.29 |  | 
APVPEPPKEEQQQALEQFAAAAAH [EPB41L3] | 5.54 ± 0.21 | 5.56 ± 0.17 |  | 
HISSCKLGPQVSLDPMKNVTCENG [LOXL2] | 4.15 ± 0.39 | 4.14 ± 0.49 |  | 
TIIFTAAREGRETLKCLSHHVADA [TOR1AIP2] | 2.42 ± 0.13 | 2.62 ± 0.2 |  | 
ERAPTATFHDSKHNIVHVHFDATR [WDFY2] | 3.34 ± 0.17 | 3.33 ± 0.29 |  | 
FLRSLRQMKQKVQSLYQEVFGRLR [NFE2L1] | 2.41 ± 0.59 | 1.7 ± 0.43 |  | 
DWRKNIEEKSGMEGRKKMFESES [TNNI2] |  |  | 3.04 ± 0.93 | 3.86 ± 0.92
IYGPGNLSTNNNTLRDHFKGISSH [SLC2A12] | 2.95 ± 0.26 | 3 ± 0.14 |  | 
PVTICCGHSFCRPCLCLSWEEAQS [TRIM43] | 2.61 ± 0.35 | 2.95 ± 0.36 |  | 
MQQLYQVQLAQQQAALQKQQEVVV [ACBD3] | 2.96 ± 0.19 | 3.05 ± 0.22 |  | 
VEATVKPELTAALRDIRAQYESIA [PRPH] | 3.48 ± 0.16 | 3.4 ± 0.22 |  | 
DNVRSLKVESGAWIGYEHTSFCGQ [CRYBA1] | 3.14 ± 0.2 | 3.07 ± 0.22 |  | 
HMNRLQSQRAMLLQGTESLNRATQ [VTI1B] | 4.12 ± 0.12 | 3.895 ± 0.03 |  | 
QRAKCKDPQLEIAYRGNCKDVSRC [SMOC2] | 3.85 ± 0.21 | 4 ± 0.14 |  | 
VVAVHVVLALFVYVAWNEGSRQWR [VMA21] | 2.84 ± 0.3 | 2.88 ± 0.16 |  | 
GKEQSRRDDLEALGHMFMYFLRGS [CSNK1G3] | 2.38 ± 0.34 | 2.29 ± 0.45 |  | 

Sequence | protein stability index [1] | protein stability index [2] | protein stability index [3] | protein stability index [4]
RQVVQDLLKAGAEVNVLNDMRDTP [OSBPL1A] | 4.45 ± 0.21 | 4.24 ± 0.25 |  | 
DVELLQDLGDIVARSESVLLHMPQ [TRIM43] | 3.18 ± 0.2 | 3.25 ± 0.35 |  | 
QCQEAEQARAELTAQHQRRLAAIA [FBF1] | 4.34 ± 0.05 | 4.28 ± 0.15 |  | 
KHAVVNLINYQDDAELATRAIPEL [CTNNB1] | 3.66 ± 0.23 | 3.64 ± 0.38 |  | 
CVNYEGQSAYDVADMLKQYFRDLP [DLC1] | 2.54 ± 0.21 | 2.65 ± 0.32 |  | 
MAVLKLTDQPPLVQAIFSGDPEEI [ANKRD44] | 3.37 ± 0.28 | 3.43 ± 0.21 |  | 
LGLDDFESLKVIGRGAFGEVRLVQ [STK38L] | 3.55 ± 0.58 | 3.38 ± 0.33 |  | 
QSHPHLVAEAFRALASAQCPQFGI [SPOPL] | 2.35 ± 0.4 | 2.16 ± 0.023 |  | 
DEEHMEEAITSASFLEQIMAPLQP [FAM189A2] | 4.74 ± 0.18 | 4.96 ± 0.19 |  | 
SLDWETFEQYCAWQLFLAHNIPLE [INTS3] | 2.3 ± 0.43 | 2.16 ± 0.32 |  | 
NGNEEDNHLPPQTKRSSRNPVFQD [FAM104A] | 5.16 ± 0.29 | 5.26 ± 0.2 |  | 
DPRYNKWMQVASLNEKRTFFHLSA [KLHL13] | 2.36 ± 0.32 | 2.12 ± 0.13 |  | 
GSTMLIEAAKGGHTSVVCYLLDYP [ANKRD17] | 2.59 ± 0.38 | 2.55 ± 0.56 |  | 
DSLPMDAYTHGCILHPELTVDSMI [GDAP1] | 3.29 ± 0.26 | 3.47 ± 0.11 |  | 
VAAGRTQKAGVTRSGRLILWEAPP [NEK8] | 2.85 ± 0.24 | 2.94 ± 0.24 |  | 
LIDVCKYLGSLQYRVWKKMLASVE [TRIM35] | 2.75 ± 0.43 | 2.25 ± 0.33 |  | 
HISNQKMPTGPPEDRLSLKFLPSS [DRICH1] | 3.21 ± 0.14 | 3.44 ± 0.12 |  | 
PRAAHACATVGNRGFVFGGRYRDA [KLHDC2] | 2.19 ± 0.19 | 2.12 ± 0.14 |  | 
TDQAIFYAVTPLPWCPHLVAVCPI [HDAC6] | 3.09 ± 0.61 | 3.22 ± 0.41 |  | 
LSRVKAAALSERGQAEEELIKAKS [LRRC45] | 5.01 ± 0.19 | 4.97 ± 0.061 |  | 
